Results as given in PMC2613632 (The Journal of Biological Chemistry, 2009).

Molecular target: the molecule itself
Assay: native MS

B1: MacB, His-tagged, purified (natural protein, E. coli, UniProt P75831 1-648, looked up)
chain: MTPLLELKDIRRSYPAGDEQVEVLKGISLDIYAGEMVAIVGASGSGKSTLMNILGCLDKATSGTYRVAGQDVATLDADALAQLRREHFGFIFQRYHLLSHLTAEQNVEVPAVYAGLERKQRLLRAQELLQRLGLEDRTEYYPAQLSGGQQQRVSIARALMNGGQVILADEPTGALDSHSGEEVMAILHQLRDRGHTVIIVTHDPQVAAQAERVIEIRDGEIVRNPPAIEKVNVTGGTEPVVNTVSGWRQFVSGFNEALTMAWRALAANKMRTLLTMLGIIIGIASVVSIVVVGDAAKQMVLADIRSIGTNTIDVYPGKDFGDDDPQYQQALKYDDLIAIQKQPWVASATPAVSQNLRLRYNNVDVAASANGVSGDYFNVYGMTFSEGNTFNQEQLNGRAQVVVLDSNTRRQLFPHKADVVGEVILVGNMPARVIGVAEEKQSMFGSSKVLRVWLPYSTMSGRVMGQSWLNSITVRVKEGFDSAEAEQQLTRLLSLRHGKKDFFTWNMDGVLKTVEKTTRTLQLFLTLVAVISLVVGGIGVMNIMLVSVTERTREIGIRMAVGARASDVLQQFLIEAVLVCLVGGALGITLSLLIAFTLQLFLPGWEIGFSPLALLLAFLCSTVTGILFGWLPARNAARLDPVDALARE
stoichiometry N: 2
